According to patent US20150252074A1, “Antagonist for (Pro)Renin Receptor for the Treatment of Hypertension and Diabetes” (priority 2012, published 2015):
“Also recorded” adds a separate entry of the source. Values belong to the molecule of their own block, whether it stands above or below them. Where no end group is shown, it is not given here.

Assays:
[1] = tested on: Ang II type 1 receptor (AT1R); assay: ICV losartan blockade of the pressor response induced by prorenin or renin; type: in vivo, mice; conditions: losartan 10 ug/ul ICV at 0.3 ul/minute for 10 minutes
[2] = target: T1, (pro)renin receptor (PRR) (Mus musculus, UniProt Q9CYN9); assay: ICV infusion of PRR antagonist peptides against the prorenin-induced pressor response, telemetric BP recording; type: in vivo, C57BI/6J mice; conditions: for effect on prorenin (ICV) induced pressor response (in words): ICV administration, C57BI/6J mice; for ΔMAP (prorenin-induced pressor response in peptide-infused mice): ICV infusion, peptide 45 ng/u1, mouse prorenin 100 ng/ul, vs. prorenin, N=5/group
T1 construct: intracerebroventricular (ICV) cannula for infusion of mouse prorenin (100 ng/ul), PR10, or PR20; from tissue; host or cells: brain of conscious C57Bl/6J mice (in vivo, ICV infusion)
Protocol: C57BI/6J mice (N=5/group) were each implanted with a telemetric probe for BP recording and an intracerebroventricular (ICV) cannula for infusion of mouse prorenin (100 ng/ul), PR10, or PR20 (45 ng/u1) at 0.3 ul/minute for 10 minutes. Mouse prorenin infusion increased the BP (mmHg) in WT mice (ΔMAP: 31.3±1.1); however, the prorenin-induced pressor response was abolished in either PR10 (ΔMAP: 16.9±4.4 vs. prorenin) or PR20 (ΔMAP: 12.7±0.5 vs. prorenin) infused mice.

[3] = target: (pro)renin receptor (PRR) in mouse brain sections (mouse) (UniProt Q9CYN9); assay: cell-based or functional assay
[4] = target: T2, (pro)renin receptor (PRR) in mouse brain sections (mouse, UniProt Q9CYN9 18-350); assay: FITC-labelled peptide, fluorescence microscopy on mouse brain sections
T2 construct: whole, on cells; Endogenous receptor in mouse brain tissue, not a recombinant construct
Protocol: In order to determine which residues of the PR20 antagonist peptide are involved in binding PRR, an alanine replacement assay was performed. A series of peptides comprising a single alanine substitution at each of the 19 amino acid positions were generated. Each of the 19 alanine substituted peptides and the PR20 peptide were labeled with FITC. Using fluorescent microscopy, each peptide was examined for binding to PRR in mouse brain sections.

[5] = tested on: WT mice; assay: Pressor response to ICV infusion of mouse prorenin or mouse renin in wildtype (WT) mice, telemetric BP recording; type: in vivo; conditions: 100 ng/ul at 0.3 ul/minute for 10 minutes ICV, N=5/group
Protocol: (§1) FIG. 6 is a series of graphs illustrating the pressor response to intracerebroventricular (ICV) infusion of carbachol (FIG. 6A), Ang II (FIG. 6B), renin (FIG. 6C), and prorenin (FIG. 6D) in wild-type (WT) and Nefh-PRR mice. WT and Nefh-PRR mice were implanted with telemetric transmitters and ICV cannula. Two weeks after recovery, mice were ICV infused (0.3μl/min) with carbachol (100 ng/μl), Ang II (100 ng/μl), Ang II (100 ng/μl)+losartan (10 μg/μl), mouse renin (100 ng/μl), mouse prorenin (100 ng/μl), or mouse prorenin (100 ng/μl)+losartan (10 μg/μl) over 10 minutes. Blood pressure (BP) was recorded in conscious freely moving mice. *P<0.05 vs. WT.
(§2) Neuron-specific PRR knockout mice (Nefh-PRR) and wildtype (WT) littermates (N=5/group) were each implanted with a telemetric probe for blood pressure (BP) recording and an intracerebroventricular (ICV) cannula for infusion of mouse prorenin (100 ng/ul), mouse renin (100 ng/ul), or an Ang II type 1 receptor (AT1R) blocker (losartan, 10 ug/ul) at 0.3 ul/minute for 10 minutes. Mouse prorenin infusion increased the BP (mmHg) in WT mice (ΔMAP: 41±5); however, the prorenin induced pressor response was abolished in Nefh-PRR mice (ΔMAP: 5±1).

[6] = tested on: Nefh-PRR mice; assay: Pressor response to ICV infusion of mouse prorenin or mouse renin in neuron-specific PRR knockout mice (Nefh-PRR); type: in vivo; conditions: 100 ng/ul at 0.3 ul/minute for 10 minutes ICV, N=5/group
Protocol: as §1, §2

T1 sequence (Q9CYN9 18-350): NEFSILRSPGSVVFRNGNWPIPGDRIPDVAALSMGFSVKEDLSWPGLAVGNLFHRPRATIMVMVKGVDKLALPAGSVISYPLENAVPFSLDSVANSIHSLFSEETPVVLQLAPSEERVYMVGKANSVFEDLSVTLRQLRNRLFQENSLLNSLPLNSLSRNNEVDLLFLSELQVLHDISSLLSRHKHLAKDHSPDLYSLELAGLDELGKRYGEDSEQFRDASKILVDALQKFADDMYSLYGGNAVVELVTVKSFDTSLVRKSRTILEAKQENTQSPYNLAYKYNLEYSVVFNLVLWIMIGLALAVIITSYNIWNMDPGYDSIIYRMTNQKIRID
(pro)renin receptor (PRR) in mouse brain sections (mouse), sequence (Q9CYN9 18-350): as above
T2 sequence (Q9CYN9 18-350): as above

Molecule: CCCCc1nc(Cl)c(CO)n1Cc1ccc(-c2ccccc2-c2nn[nH]n2)cc1 [losartan]
effect on pressor response induced by prorenin or renin (in words) [1]: completely blocked

Molecule: IFDNIISQGVLKEDVF (PRR antagonist peptide (PR10))
effect on prorenin (ICV) induced pressor response (in words) [2]: abolished; also recorded: significantly reduced
ΔMAP (prorenin-induced pressor response in peptide-infused mice) ([2]; 0.3 ul/minute for 10 minutes): 16.9±4.4 mmHg

Molecule: LPTDTTTFKRIFLKRMPSI (PRR antagonist peptide (PR20))
effect on prorenin (ICV) induced pressor response (in words) [2]: abolished; also recorded: significantly reduced
ΔMAP (prorenin-induced pressor response in peptide-infused mice) ([2]; 0.3 ul/minute for 10 minutes): 12.7±0.5 mmHg

pressor response to ICV mouse prorenin in WT mice (ΔMAP) [3]: 41 mmHg
pressor response to ICV mouse prorenin in neuron-specific PRR knockout (Nefh-PRR) mice (ΔMAP) [3]: 5 mmHg
Molecule: mouse prorenin (from UniProt P06281 22-402) (ligand)

binding result [4]: binds
B1: PR20 peptide labeled with FITC (peptide)
peptide: LPTDTTTFKRIFLKRMPSI
modifications: also: FITC label, site not given here
notes: also called PR20 antagonist peptide

B2: mouse renin: mouse renin protein infused ICV to induce a pressor response (protein, UniProt P06281 72-402, looked up)
Renin-1: SPVVLTNYLNTQYYGEIGIGTPPQTFKVIFDTGSANLWVPSTKCSRLYLACGIHSLYESSDSSSYMENGSDFTIHYGSGRVKGFLSQDSVTVGGITVTQTFGEVTELPLIPFMLAKFDGVLGMGFPAQAVGGVTPVFDHILSQGVLKEEVFSVYYNRGSHLLGGEVVLGGSDPQHYQGNFHYVSISKTDSWQITMKGVSVGSSTLLCEEGCAVVVDTGSSFISAPTSSLKLIMQALGAKEKRIEEYVVNCSQVPTLPDISFDLGGRAYTLSSTDYVLQYPNRRDKLCTLALHAMDIPPPTGPVWVLGATFIRKFYTEFDRHNNRIGFALAR
ΔMAP (pressor response to ICV infusion) [5]: 31±5 mmHg
ΔMAP (pressor response to ICV infusion) [6]: 27±2 mmHg

B3: mouse prorenin: activating ligand of PRR, infused ICV to induce a pressor response (protein)
chain: LPTRTATFERIPLKKMPSVREILEERGVDMTRLSAEWGVFTKRPSLTNLTSPVVLTNYLNTQYYGEIGIGTPPQTFKVIFDTGSANLWVPSTKCSRLYLACGIHSLYESSDSSSYMENGSDFTIHYGSGRVKGFLSQDSVTVGGITVTQTFGEVTELPLIPFMLAKFDGVLGMGFPAQAVGGVTPVFDHILSQGVLKEEVFSVYYNRGSHLLGGEVVLGGSDPQHYQGNFHYVSISKTDSWQITMKGVSVGSSTLLCEEGCAVVVDTGSSFISAPTSSLKLIMQALGAKEKRIEEYVVNCSQVPTLPDISFDLGGRAYTLSSTDYVLQYPNRRDKLCTLALHAMDIPPPTGPVWVLGATFIRKFYTEFDRHNNRIGFALAR
ΔMAP (increase of BP by mouse prorenin infusion alone) ([2]; ICV mouse prorenin 100 ng/ul, 0.3 ul/minute for 10 minutes, WT (C57BI/6J) mice): 31.3±1.1 mmHg
ΔMAP (pressor response to ICV infusion) [5]: 41±5 mmHg
ΔMAP (pressor response to ICV infusion) [6]: 5±1 mmHg
